Experiment [1] addresses T1, OTV3-KLH (human; keyhole limpet, conjugated to the carrier via N-terminal Cys ; chain 1 pos 1: Cys chemically coupled to the KLH carrier (written C); linear peptide).
T1 peptide: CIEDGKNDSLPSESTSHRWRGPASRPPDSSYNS
The experiment is described as follows: monoclonal phage ELISA, replicate 1. The protocol: (§1) Single *E. coli* clones were picked randomly selected during the biopanning step and cultured. Supernatants containing phage were prepared and purified. ELISA plates were coated with antigens conjugated to carriers or carriers alone (control), followed by washing, blocking, washing and addition of purified phage. After additional washing, bound phage was detected using anti-phage-HRP antibody.
(§2) This example describes the production of a monoclonal antibody by phage display. The phage library used in this case was a commercially available human naïve LiAb-Fab library (high diversity of 2×10E^10 variants). After 4 rounds of biopanning and ELISA tests, 80 clones were selected and 5 different sequences were identified within this group of phage clones, represented by R4P1-C1, #1, #2, #3, and #4. Each of these phage clones were tested by ELISA for binding to each of the individual peptides OTV3, OTV4, and OTV5 each coupled to either BSA, OVA or KLH (a total of 9 peptide-conjugates). This is an important confirmation step to ensure clone specificity because due to their nature phages can sometimes bind unspecifically. In the ELISA tests (monoclonal phage ELISA tests) one phage Fab clone, R4P1-C1, bound specifically and strongly to all three of the peptides (all nine of the peptide-carrier conjugates), whereas the other phage Fab clones appeared to be non-specific binders (see Table GG below, all phages were tested at the same concentration).
In general terms: In an ELISA, binding on a coated surface is turned into a signal by an enzyme label.

Experiment [2] addresses T2, OTV4-KLH (human; keyhole limpet, conjugated to the carrier via N-terminal Cys ; chain 1 pos 1: Cys chemically coupled to the KLH carrier (written C); linear peptide).
T2 peptide: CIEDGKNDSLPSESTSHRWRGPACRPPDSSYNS
The experiment is described as follows: monoclonal phage ELISA, replicate 1. The protocol:
as §1, §2

The target of experiment [3] is T3, OTV5-KLH (human; keyhole limpet, (Pra-) at the N-terminus; C-terminal amide (-CONH2); cyclic; conjugated to the carrier via N-terminal Cys as stated in Example 4 ; chain 1: propargyl group (Pra-) on the N-terminus before Cys1, not …).
T3 peptide: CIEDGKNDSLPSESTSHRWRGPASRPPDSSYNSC
The experiment is described as follows: monoclonal phage ELISA, replicate 1. The procedure:
as §1, §2

Experiment [4] addresses T4, OTV3-OVA (human, UniProt P01012 2-386 (chicken entry), conjugated to the carrier via N-terminal Cys).
T4 sequence (peptide): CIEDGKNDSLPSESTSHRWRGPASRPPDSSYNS
T4 sequence: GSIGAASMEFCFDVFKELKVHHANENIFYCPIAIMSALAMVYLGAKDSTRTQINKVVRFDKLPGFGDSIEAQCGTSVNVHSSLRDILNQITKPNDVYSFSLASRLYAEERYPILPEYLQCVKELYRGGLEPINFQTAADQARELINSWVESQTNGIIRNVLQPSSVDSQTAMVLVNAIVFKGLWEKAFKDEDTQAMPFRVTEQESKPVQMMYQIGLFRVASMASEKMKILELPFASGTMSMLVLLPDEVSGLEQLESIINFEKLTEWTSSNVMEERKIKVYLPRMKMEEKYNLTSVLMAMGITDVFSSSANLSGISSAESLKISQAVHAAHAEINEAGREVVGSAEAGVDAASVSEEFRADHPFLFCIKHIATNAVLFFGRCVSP
The experiment is described as follows: monoclonal phage ELISA, replicate 1. The procedure:
as §1, §2

The target of experiment [5] is T5, OTV4-OVA (human, UniProt P01012 2-386 (chicken entry), conjugated to the carrier via N-terminal Cys).
T5 sequence (peptide): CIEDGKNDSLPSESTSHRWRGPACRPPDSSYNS
T5 sequence: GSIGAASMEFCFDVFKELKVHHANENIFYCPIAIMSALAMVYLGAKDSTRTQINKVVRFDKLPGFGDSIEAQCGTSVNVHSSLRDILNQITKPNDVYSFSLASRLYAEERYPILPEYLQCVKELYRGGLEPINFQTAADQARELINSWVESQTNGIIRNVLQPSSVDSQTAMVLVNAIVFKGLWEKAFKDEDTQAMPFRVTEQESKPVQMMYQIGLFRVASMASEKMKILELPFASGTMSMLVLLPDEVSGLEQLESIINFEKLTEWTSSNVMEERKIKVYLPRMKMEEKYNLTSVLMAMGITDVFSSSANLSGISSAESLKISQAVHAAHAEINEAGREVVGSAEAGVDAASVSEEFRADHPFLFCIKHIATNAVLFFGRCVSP
The experiment is described as follows: monoclonal phage ELISA, replicate 1. The protocol: as §1, §2

Experiment [6] deals with T6, OTV5-OVA (human, UniProt P01012 2-386 (chicken entry), (Pra-) at the N-terminus; C-terminal amide (-CONH2); cyclic; conjugated to the carrier via N-terminal Cys as stated in Example 4).
T6 sequence (peptide): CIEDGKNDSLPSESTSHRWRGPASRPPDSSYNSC
T6 sequence: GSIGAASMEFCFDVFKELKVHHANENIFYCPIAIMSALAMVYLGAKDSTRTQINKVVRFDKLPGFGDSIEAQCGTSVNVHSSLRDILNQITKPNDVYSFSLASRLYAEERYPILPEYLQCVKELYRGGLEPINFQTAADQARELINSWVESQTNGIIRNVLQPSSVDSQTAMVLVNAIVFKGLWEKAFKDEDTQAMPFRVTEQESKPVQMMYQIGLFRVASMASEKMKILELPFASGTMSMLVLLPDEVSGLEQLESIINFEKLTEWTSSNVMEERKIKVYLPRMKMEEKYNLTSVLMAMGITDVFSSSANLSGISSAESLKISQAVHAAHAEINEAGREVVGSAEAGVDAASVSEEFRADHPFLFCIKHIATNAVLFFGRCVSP
The experiment is described as follows: monoclonal phage ELISA, replicate 1. The protocol:
as §1, §2

Experiment [7] has as its target T7, OTV3-BSA (human; bovine, conjugated to the carrier via N-terminal Cys). The experiment is described as follows: monoclonal phage ELISA, replicate 1. The protocol: as §1, §2
Experiment [8] concerns the target T8, OTV4-BSA (human; bovine, conjugated to the carrier via N-terminal Cys). The experiment is described as follows: monoclonal phage ELISA, replicate 1. The protocol:
as §1, §2

The target in experiment [9] is T9, OTV5-BSA (human; bovine, (Pra-) at the N-terminus; C-terminal amide (-CONH2); cyclic; conjugated to the carrier via N-terminal Cys as stated in Example 4). The experiment is described as follows: monoclonal phage ELISA, replicate 1. The protocol: as §1, §2
For experiment [10], the target named is T1, OTV3-KLH. The experiment is described as follows: monoclonal phage ELISA, replicate 2. The procedure: as §1, §2
Experiment [11] addresses T2, OTV4-KLH. The experiment is described as follows: monoclonal phage ELISA, replicate 2. The protocol:
as §1, §2

For experiment [12], the target named is T3, OTV5-KLH. The experiment is described as follows: monoclonal phage ELISA, replicate 2. The protocol:
as §1, §2

Experiment [13] deals with T4, OTV3-OVA. The experiment is described as follows: monoclonal phage ELISA, replicate 2. The procedure:
as §1, §2

The target of experiment [14] is T5, OTV4-OVA. The experiment is described as follows: monoclonal phage ELISA, replicate 2. The protocol:
as §1, §2

Experiment [15] deals with T6, OTV5-OVA. The experiment is described as follows: monoclonal phage ELISA, replicate 2. The procedure: as §1, §2
Experiment [16] deals with T7, OTV3-BSA. The experiment is described as follows: monoclonal phage ELISA, replicate 2. The protocol:
as §1, §2

The target in experiment [17] is T8, OTV4-BSA. The experiment is described as follows: monoclonal phage ELISA, replicate 2. The procedure:
as §1, §2

The target of experiment [18] is T9, OTV5-BSA. The experiment is described as follows: monoclonal phage ELISA, replicate 2. The protocol:
as §1, §2

The source of these data is patent publication US12590147 (OBLIQUE THERAPEUTICS, dated 2026).

T9 sequence (P02769 25-607 limits assumed): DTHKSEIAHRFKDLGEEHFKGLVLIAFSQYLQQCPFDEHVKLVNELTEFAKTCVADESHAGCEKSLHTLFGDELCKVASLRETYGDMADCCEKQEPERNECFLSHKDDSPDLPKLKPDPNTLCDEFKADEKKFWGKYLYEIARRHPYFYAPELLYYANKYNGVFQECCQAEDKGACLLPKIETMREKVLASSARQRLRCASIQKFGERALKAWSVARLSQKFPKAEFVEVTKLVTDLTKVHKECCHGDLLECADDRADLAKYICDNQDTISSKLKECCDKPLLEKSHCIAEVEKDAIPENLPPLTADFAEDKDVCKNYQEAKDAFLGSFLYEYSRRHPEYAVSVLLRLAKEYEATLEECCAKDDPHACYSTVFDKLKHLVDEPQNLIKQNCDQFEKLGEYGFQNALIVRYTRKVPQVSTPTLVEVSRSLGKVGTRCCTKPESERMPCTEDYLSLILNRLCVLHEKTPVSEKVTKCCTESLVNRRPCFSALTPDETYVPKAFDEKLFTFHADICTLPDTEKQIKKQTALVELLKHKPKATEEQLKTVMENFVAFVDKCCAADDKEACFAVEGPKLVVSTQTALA
T8 sequence (P02769 25-607 limits assumed): as above
T7 sequence (P02769 25-607 limits assumed): as above

B1: R4P1-C1 (phage Fab clone) (Fab, V domains shown)
VH: QVQLQQSGPGLVKPSQTLSLTCAISGDSVSSNSAAWNWIRQSPSRGLEWLGRTYYRSKWYNDYAVSVKSRITINPDTSKNQFSLQLNSVTPEDTAVYYCARDDYDPVGMYAFDIWGQGTLVTVSS
VL: LPVLTQPPSASGTPGQRVTISCSGSSSNIGSNTVNWYQQLPGTAPKLLIYRNTQRPSGVPDRFSGSKSGTSASLAISGLQSEDEADYYCEAWDDSMRGAAFGGGTQLTVL
notes: also called phage clone R4P1-C1
On to B1, for which the ELISA signal with OTV3-KLH [1] amounted to 3.13; with OTV4-KLH [2], 2.81; in the experiment with OTV5-KLH [3], 2.74; with OTV3-OVA [4], 2.85; with OTV4-OVA [5], 2.84; in the experiment with OTV5-OVA [6] it was 2.61. Further, the ELISA signal in the experiment with OTV3-BSA [7] worked out at 2.87; with OTV4-BSA [8], 2.95; with OTV5-BSA [9], 2.63; with OTV3-KLH [10], 2.94; in the experiment with OTV4-KLH [11], 2.51; with OTV5-KLH [12], 2.58. The ELISA signal in the experiment with OTV3-OVA [13] came to 2.72; with OTV4-OVA [14], 2.78; with OTV5-OVA [15] it was 2.49; with OTV3-BSA [16] it was 2.65; with OTV4-BSA [17] it was 2.8; with OTV5-BSA [18] it was 2.56.
